This note sets out measurements from paper PMC6779754, “Brain-specific homeobox Bsx specifies identity of pineal gland between serially homologous photoreceptive organs in zebrafish”.

Substitutions are numbered along the chain they refer to.

For series [1], the target named is T1, GST-Bsx (zebrafish, UniProt Q6R3Q6 1-227). Put plainly: EMSA; EMSA: DIG Gel Shift Kit (Roche) per manufacturer, 2.0 pmol GST-Bsx with 32 fmol DIG-oligonucleotide or 8 fmol DIG-147bp probe; buffer, pH and temperature not stated. The following applies: protein: recombinant, tags: N-terminal GST (pGEX-5X-1), label: DIG, annealed synthetic oligonucleotides. In general terms: A gel shift assay detects complexes by their altered migration in electrophoresis.

For series [2], the target named is T1, GST-Bsx. Put plainly: competition; competitor vs BSXRE probe (EMSA); EMSA: DIG Gel Shift Kit (Roche) per manufacturer, 2.0 pmol GST-Bsx with 32 fmol DIG-oligonucleotide or 8 fmol DIG-147bp probe; buffer, pH and temperature not stated. The following applies: protein: recombinant; tags: N-terminal GST (pGEX-5X-1); annealed synthetic oligonucleotides.

T1 sequence (Q6R3Q6 whole entry): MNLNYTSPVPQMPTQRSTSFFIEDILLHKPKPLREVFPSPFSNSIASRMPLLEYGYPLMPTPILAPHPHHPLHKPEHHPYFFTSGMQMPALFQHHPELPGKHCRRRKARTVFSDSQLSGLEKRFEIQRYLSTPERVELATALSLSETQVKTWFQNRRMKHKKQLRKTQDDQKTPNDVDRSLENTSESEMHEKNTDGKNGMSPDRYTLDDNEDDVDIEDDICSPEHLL

B1: BSXRE probe (dsDNA)
DNA 1: GAATTCGATGGCGCTAATCGGTGGGGGATCAAGCTT
DNA 2: AAGCTTCATCCCCCACCGATTAGCGCCATCGAATTC
For the molecule B1, in the series with GST-Bsx [1] (36-mer), the binding result is given as “binds”.

B2: BSXRE-mut probe (dsDNA)
DNA 1: B1 DNA 1 with A17C, T18G, C19A, G20T
DNA 2: B1 DNA 2 with C17A, G18T, A19C, T20G
B2: the binding result with GST-Bsx [1] is reported as “no binding”.

B3: D2 competitor (dsDNA)
DNA 1: GAATTCGATTGTTTTTAATAAAGATTTATCAAGCTT
DNA 2: AAGCTTGATAAATCTTTATTAAAAACAATCGAATTC
With B3, the binding result with GST-Bsx [2] is given as “binds”.

B4: D3 competitor (dsDNA)
DNA 1: GAATTCGATAGATTTAATATTTCAGTCATCAAGCTT
DNA 2: AAGCTTGATGACTGAAATATTAAATCTATCGAATTC
As to B4, the binding result with GST-Bsx [2] is listed as “binds”.

B5: P3 competitor (dsDNA)
DNA 1: GAATTCGATCTCCTGTAATCTGCCTAAATCAAGCTT
DNA 2: AAGCTTGATTTAGGCAGATTACAGGAGATCGAATTC
For B5, the binding result in the series with GST-Bsx [2] was “binds”.

B6: D4 competitor (dsDNA)
DNA 1: GAATTCGATTCTGATAATCTGTGTGTGATCAAGCTT
DNA 2: AAGCTTGATCACACACAGATTATCAGAATCGAATTC
With B6, the binding result in the series with GST-Bsx [2] was “binds”.
